The target of assay [1] is T1, His-labeled cynomolgus monkey CD3E (purchased from Acro Biosystems) (cynomolgus monkey, UniProt Q95LI5 22-117).
T1 construct: also called Cynomolgus monkey CD3E antigen; not shown: His label
T1 sequence (looked up): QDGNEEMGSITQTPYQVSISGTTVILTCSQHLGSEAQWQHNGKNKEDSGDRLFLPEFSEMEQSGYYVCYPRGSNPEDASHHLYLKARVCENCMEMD
Put plainly: ELISA, plate coated with His-labeled cynomolgus monkey CD3E. On the procedure:
(§1) A microtiter plate was coated with 0.1 μg/mL His-labeled human or cynomolgus monkey CD3E (purchased from Acro Biosystems) (100 μL/well) overnight at 4° C. The coating solution was discarded, and the microtiter plate was blocked with 1% PBSB (200 μL/well), incubated for 1 h at 37° C. and washed with PBS containing 0.05% Tween-20. The diluted CD3 humanized antibodies AB611 and AB614 with a series of concentrations were added (100 μL/well), incubated for 1 h at 37° C. and washed with 0.05% PBST, and HRP-labeled goat anti-human IgG (H+L) (Jackson Laboratory) was added as the detection antibody and incubated for 1 h at 37° C. The wells were washed three times with 0.05% PBST, added with TMB (100 μL/well) and developed at room temperature for 5 min. 0.2 M H₂SO₄ was added to terminate the reaction, 50 μL/well. Absorption values were read by a microplate reader at double wavelengths 450 nm/620 nm. Plotting was performed by software GraphPad Prism 6 with OD 450 nm/620 nm as the Y-axis and an antibody concentration as the X-axis.
A general note: In an ELISA, binding on a coated surface is turned into a signal by an enzyme label.

Assay [2] addresses T2, human CD3 on human T cells (human, UniProt P07766 23-207).
T2 construct: whole, on cells; also called human primary T cells; NFAT-Jurkat cells
Put plainly: flow cytometry on human primary T cells. A general note: Flow cytometry measures light scatter and fluorescence of single cells or particles in a stream.

The target of assay [3] is T3, His-labeled human CD3E (human, UniProt P07766 23-126).
T3 construct: also called human CD3E antigen; antigen CD3E; not shown: His label
The experiment in a line: ELISA, plate coated with His-labeled human CD3E. On the procedure: as §1

Assay [4] deals with T3, His-labeled human CD3E. The experiment in a line: BLI (Octet), His-labeled human CD3E on Ni-NTA sensors, antibody 3.125-100 nM. On the procedure:
(§2) The binding affinity constants of the purified murine monoclonal antibodies to antigen CD3E were determined by […] (BLI) with the ForteBio Octet RED&QK system from PALL Corporation. Concentration gradients of a multichannel parallel quantitative analysis were set to 3.125, 6.25, 12.5, 25, 50 and 100 nM, and His-labeled human CD3E (10 μg/mL) was coupled to Ni-NTA sensors.

For assay [5], the target named is T4, human CD3E (purchased from Acro Biosystems) (human, UniProt P07766 23-126).
T4 construct: also called human CD3 antigen; human CD3E molecules
The experiment in a line: ELISA, plate coated with human CD3E. On the procedure:
A microtiter plate was coated with 100 μL of 0.1 μg/mL human CD3E (purchased from Acro Biosystems) overnight at room temperature. The coating solution was discarded, and the wells were blocked with skimmed milk dissolved in phosphate buffered saline (PBS) for 0.5 hours and washed with PBS containing 0.05% Tween-20 (PBST). Then the purified murine antibodies AP191, AP591 and AP831 against human CD3 were added with 50 μL per well and incubated for 1 h at room temperature. The wells were washed with 0.05% PBST. Then 50 μL of HRP-labeled goat anti-mouse IgG polyclonal antibody (purchased from Jackson Laboratory) was added per well as the detected antibody and incubated for 1 h at 37° C. The wells were washed three times with 0.05% PBST, added with TMB (100 μL/well) and developed at room temperature for 5 min. 0.2 M H₂SO₄ was added to terminate the reaction, 50 μL/well. Absorption values were read by a microplate reader at double wavelengths 450 nm/620 nm. Plotting was performed by software GraphPad Prism 6 with OD 450 nm/620 nm as the Y-axis and an antibody concentration as the X-axis.

Assay [6] has as its target T3, His-labeled human CD3E. The experiment in a line: BLI (Octet), method of Example 3: His-labeled human CD3E on Ni-NTA sensors. On the procedure:
as §2
For example, the experimental method for determining the kinetic constants and affinity equilibrium dissociation constants of the humanized antibodies was as described in Example 3.
On the technique in general: In BLI a coated tip is dipped into the sample, and binding shifts an interference pattern.

For assay [7], the target named is T2, human CD3 on human T cells. The experiment in a line: cell-based or functional assay.

T3 sequence (P07766 23-126): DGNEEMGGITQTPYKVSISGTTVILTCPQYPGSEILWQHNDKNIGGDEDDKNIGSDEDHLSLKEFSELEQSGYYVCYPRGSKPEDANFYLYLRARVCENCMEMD
T2 sequence (P07766 23-207): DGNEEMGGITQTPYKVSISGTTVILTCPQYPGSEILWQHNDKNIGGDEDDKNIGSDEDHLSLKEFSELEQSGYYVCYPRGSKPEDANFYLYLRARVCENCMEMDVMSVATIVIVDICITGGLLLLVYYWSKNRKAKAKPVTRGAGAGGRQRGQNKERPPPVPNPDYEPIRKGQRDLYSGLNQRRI
T4 sequence (P07766 23-126 limits assumed): as the sequence (P07766 23-126) above

B1: humanized antibody AB611 (antibody, human IgG4 S228P, kappa, V domains shown)
VH: EVQLVQSGAEVKKPGSSVKVSCKASGYTFTNNYIHWVKEKPGQGLEWIGWIYPGDGTTKYNEKFKGKTTLASDKSTNTAYMELSSLRSEDTAIYFCTRNNNYYFDYWGQGTTVTVSS
VL: DIVMTQSPDSLAVSLGERATMNCKSSQSLFNSRTRKNYLAWYQQKPGESPKLLIYWASTRESGVPDRFSGSGSGTDFTLTISSLQAEDVAVYYCKQSFILRTFGGGTKVEIKR
notes: Humanized from AP831 CDRs
Turning to B1, the figures for the concentration giving a half-maximal response (EC50) (in assay [1]; in assay [2]; in the assay with His-labeled human CD3E [3]) were 0.00483 nM, 0.174 nM and 0.00833 nM, respectively.

B2: murine monoclonal antibody AP831 (antibody, mouse IgG1, V domains shown)
VH: QVQLQQSGPELVKPGTSVKMSCKASGYTFTNNYIHWVKEKPGEGLEWIGWIYPGDGTTKYNEKFKGKTTLASDKSSNTVYMFLSSLTSEDSAIYFCTRNNNYYFDYWGQGTTLTVSS
VL: DIVMSQSPSSLAVSAGEKVTMNCKSSQSLFNSRTRKNYLAWYQQKPGQSPKLLIYWASTRESGVPDRFTGSGSGTDFTLTISSVQAEDLALYYCKQSFILRTFGGGTKLEIK
Turning to B2, the EC50 (commonly the concentration giving half of the maximal effect) in assay [2] was 0.825 nM; in assay [5], 0.0404 nM. Moreover, the kon (in general, the rate constant with which the complex forms) with His-labeled human CD3E [4] was determined as 692000 M⁻¹ s⁻¹.

B3: humanized antibody AB614 (antibody, human IgG4 S228P, kappa, V domains shown)
VH: EVQLLESGGGLVQPGGSLKLSCAASGFTFNTYAMNWVRQAPGKGLEWVGRIRSKINNYATYYADSVKDRFTISRDDSKNTAYLQMNNLKTEDTAMYYCVRHDNFYGSTYSWFADWGQGTLVTVSS
VL: ELVVTQEPSLTVSPGGTVTLTCRSSTGVVTTSNYANWVQEKPDHLFTGLIGATNYRAPGTPARFSGSLLGGKAALTLSGVQPEDEAIYFCVLWYSNHWVFGGGTKLTVLR
notes: Humanized from AP591 CDRs
In turn, B3 had an EC50 in assay [1] of 0.00755 nM. In assay [2], the EC50 worked out at 1.18 nM. Also, the EC50 in the assay with His-labeled human CD3E [3] came to 0.00913 nM. Moreover, in the assay with His-labeled human CD3E [6], binding was put at a Kd of 0.0196 nM; the koff (as a rule, the first-order rate constant of dissociation) is 1.45e-05 s⁻¹; the on-rate (kon) stood at 741000 M⁻¹ s⁻¹. In addition, the “EC50 of activating T cells (luciferase of NFAT RE reporter Jurkat T cells)” value in assay [7] was 0.142 nM.
